Literature values as cited in PMC12990809.

Legend:
Test in all cases: pulldown
Details in all cases: 20 nM protein, 1.5 uM RNA pool; 20 mM HEPES pH 7.8, 70 mM KCl, 10 mM NaCl, 10% glycerol, 2 mM DTT, 0.1 ug/uL BSA; 30 min, 4 C (protocol of this paper; not …); cited from earlier work
[1] = molecular target: T1, RBMS3 (Homo sapiens) (UniProt Q6XE24)
T1 sequence: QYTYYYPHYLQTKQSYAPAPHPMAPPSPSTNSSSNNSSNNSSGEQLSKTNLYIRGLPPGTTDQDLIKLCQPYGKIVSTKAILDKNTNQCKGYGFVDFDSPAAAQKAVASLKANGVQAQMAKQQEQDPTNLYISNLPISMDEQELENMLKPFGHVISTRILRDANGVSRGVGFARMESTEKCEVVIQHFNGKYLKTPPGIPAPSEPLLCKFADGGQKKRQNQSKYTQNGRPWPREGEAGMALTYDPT

[2] = molecular target: T2, RBM4 (Homo sapiens) (UniProt Q9BWF3)
T2 sequence: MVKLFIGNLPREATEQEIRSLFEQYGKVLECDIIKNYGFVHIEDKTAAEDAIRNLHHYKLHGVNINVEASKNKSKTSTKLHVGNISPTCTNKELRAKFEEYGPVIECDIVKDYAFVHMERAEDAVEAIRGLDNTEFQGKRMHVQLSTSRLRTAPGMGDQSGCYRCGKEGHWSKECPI

[3] = molecular target: T3, Rbp1 (Drosophila melanogaster) (UniProt Q02427)
T3 sequence: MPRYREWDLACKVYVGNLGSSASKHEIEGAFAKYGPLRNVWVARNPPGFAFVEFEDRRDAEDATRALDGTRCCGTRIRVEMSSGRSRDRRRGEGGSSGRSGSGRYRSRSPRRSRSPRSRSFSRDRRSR

[4] = molecular target: T4, SART3 (Homo sapiens) (UniProt Q15020)
T4 sequence: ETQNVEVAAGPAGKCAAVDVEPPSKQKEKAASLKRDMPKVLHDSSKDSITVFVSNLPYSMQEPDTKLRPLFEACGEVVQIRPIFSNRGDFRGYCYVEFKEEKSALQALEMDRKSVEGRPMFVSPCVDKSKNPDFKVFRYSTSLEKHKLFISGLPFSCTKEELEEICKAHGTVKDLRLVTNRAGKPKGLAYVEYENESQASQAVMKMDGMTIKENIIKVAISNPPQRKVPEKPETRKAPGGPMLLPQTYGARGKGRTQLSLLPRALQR

[5] = molecular target: T5, RBM46 (Homo sapiens) (UniProt Q8TBY0)
T5 sequence: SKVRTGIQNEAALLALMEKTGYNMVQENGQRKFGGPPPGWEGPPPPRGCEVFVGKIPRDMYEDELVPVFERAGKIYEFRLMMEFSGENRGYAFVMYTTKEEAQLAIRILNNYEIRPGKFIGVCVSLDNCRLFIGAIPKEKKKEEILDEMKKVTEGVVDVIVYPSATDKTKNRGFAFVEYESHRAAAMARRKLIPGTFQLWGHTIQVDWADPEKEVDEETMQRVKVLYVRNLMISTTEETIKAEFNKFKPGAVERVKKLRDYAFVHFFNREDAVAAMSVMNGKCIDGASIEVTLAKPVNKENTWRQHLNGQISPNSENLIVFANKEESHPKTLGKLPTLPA

[6] = molecular target: T6, SF2 (Drosophila melanogaster) (UniProt Q7KJ21)
T6 sequence: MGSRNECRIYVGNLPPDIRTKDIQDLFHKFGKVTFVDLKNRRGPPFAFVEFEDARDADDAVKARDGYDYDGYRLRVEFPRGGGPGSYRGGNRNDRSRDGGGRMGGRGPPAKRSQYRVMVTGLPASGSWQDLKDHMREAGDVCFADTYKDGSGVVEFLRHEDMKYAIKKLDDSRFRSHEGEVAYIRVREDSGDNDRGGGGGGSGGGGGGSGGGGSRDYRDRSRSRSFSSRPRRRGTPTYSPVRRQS

[7] = molecular target: T7, CG14718 (Drosophila melanogaster) (UniProt Q7K543)
T7 sequence: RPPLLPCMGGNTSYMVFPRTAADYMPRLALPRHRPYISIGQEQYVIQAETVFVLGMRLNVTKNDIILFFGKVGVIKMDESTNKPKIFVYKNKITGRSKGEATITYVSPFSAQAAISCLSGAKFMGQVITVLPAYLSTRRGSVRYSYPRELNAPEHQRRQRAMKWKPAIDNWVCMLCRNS

[8] = molecular target: PABPC4 (Homo sapiens) (UniProt Q13310)
PABPC4 (Homo sapiens), sequence (Q13310 1-414): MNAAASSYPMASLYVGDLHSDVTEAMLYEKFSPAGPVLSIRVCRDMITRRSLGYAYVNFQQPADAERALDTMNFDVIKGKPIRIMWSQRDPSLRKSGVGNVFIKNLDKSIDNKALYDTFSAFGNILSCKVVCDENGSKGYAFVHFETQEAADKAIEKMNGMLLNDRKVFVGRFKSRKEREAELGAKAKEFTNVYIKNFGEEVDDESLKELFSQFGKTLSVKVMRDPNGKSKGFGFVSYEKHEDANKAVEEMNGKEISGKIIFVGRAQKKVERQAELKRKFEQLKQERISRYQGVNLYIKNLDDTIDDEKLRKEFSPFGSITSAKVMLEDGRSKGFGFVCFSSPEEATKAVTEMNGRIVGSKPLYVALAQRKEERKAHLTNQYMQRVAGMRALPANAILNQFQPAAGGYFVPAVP

[9] = molecular target: T8, RBM28 (Homo sapiens) (UniProt Q9NW13)
T8 sequence: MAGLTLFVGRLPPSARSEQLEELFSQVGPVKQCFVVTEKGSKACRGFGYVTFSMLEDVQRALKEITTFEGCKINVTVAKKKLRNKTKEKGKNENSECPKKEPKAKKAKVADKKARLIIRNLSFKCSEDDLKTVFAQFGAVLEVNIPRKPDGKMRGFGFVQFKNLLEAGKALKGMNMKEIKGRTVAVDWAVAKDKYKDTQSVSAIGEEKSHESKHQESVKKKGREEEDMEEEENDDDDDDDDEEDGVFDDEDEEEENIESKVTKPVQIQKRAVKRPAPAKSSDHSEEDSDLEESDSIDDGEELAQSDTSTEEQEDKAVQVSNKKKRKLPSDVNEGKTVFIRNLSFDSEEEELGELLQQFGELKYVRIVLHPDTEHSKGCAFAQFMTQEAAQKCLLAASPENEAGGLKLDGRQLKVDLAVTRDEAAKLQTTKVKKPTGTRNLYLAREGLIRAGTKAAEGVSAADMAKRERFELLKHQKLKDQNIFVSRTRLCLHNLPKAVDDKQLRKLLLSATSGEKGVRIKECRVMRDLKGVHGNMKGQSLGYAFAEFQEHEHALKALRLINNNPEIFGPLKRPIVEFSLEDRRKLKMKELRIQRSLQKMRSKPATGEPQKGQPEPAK

[10] = molecular target: T9, pum (Drosophila melanogaster) (UniProt P25822)
T9 sequence: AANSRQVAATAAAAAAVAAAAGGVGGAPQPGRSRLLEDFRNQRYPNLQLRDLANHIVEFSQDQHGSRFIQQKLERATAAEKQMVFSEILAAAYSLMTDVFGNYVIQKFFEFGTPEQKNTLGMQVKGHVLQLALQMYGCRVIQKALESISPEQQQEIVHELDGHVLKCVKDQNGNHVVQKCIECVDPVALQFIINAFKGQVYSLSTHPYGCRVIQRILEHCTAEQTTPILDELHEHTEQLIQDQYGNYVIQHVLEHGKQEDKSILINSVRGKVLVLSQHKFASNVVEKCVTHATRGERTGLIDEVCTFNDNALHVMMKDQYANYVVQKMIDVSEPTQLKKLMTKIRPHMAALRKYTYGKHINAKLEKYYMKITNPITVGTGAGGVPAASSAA

[11] = molecular target: T10, tiar-3 (Caenorhabditis elegans) (UniProt Q93194)
T10 sequence: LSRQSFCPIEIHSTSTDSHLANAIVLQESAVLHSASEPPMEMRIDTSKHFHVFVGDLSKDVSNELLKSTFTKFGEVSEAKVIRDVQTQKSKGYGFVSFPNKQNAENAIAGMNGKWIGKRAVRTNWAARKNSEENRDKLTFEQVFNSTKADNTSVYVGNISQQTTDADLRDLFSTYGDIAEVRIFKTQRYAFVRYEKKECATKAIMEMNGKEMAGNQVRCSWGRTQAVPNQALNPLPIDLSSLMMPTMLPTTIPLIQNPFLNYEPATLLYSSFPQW

[12] = molecular target: RBM5 (Homo sapiens) (UniProt P52756)
RBM5 (Homo sapiens), sequence (P52756 1-546): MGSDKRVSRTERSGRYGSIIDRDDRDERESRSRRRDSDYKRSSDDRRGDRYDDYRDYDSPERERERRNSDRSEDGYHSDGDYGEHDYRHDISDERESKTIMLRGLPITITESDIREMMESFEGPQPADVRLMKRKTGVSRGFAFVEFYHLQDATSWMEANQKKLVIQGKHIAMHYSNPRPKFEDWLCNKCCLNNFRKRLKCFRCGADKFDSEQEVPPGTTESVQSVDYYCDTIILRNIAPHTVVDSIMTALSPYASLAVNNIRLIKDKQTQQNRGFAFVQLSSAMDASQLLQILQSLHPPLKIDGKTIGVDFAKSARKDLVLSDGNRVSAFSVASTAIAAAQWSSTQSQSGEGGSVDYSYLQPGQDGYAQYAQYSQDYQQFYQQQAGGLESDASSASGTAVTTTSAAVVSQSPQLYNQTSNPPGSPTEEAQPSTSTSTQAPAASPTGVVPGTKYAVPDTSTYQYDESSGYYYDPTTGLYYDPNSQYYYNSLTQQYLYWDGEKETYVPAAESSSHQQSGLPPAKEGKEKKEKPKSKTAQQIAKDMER

[13] = molecular target: T11, shep (Drosophila melanogaster) (UniProt Q8MSV2)
T11 sequence: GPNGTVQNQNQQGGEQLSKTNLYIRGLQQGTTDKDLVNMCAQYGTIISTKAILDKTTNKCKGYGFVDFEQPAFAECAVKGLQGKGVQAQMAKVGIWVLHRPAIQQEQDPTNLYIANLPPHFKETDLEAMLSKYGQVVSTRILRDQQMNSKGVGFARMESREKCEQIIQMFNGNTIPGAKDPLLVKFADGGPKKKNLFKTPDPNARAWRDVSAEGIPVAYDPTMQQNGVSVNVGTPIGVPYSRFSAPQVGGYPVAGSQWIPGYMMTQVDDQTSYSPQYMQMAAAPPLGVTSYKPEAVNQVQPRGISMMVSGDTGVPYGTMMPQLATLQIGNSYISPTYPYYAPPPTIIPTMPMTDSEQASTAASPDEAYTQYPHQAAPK

[14] = molecular target: T12, RBM3 (Homo sapiens) (UniProt P98179)
T12 sequence: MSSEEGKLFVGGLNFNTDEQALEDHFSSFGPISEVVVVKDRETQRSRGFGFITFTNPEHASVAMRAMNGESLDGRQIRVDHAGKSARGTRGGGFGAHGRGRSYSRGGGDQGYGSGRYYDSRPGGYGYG

[15] = molecular target: T13, QKI (Homo sapiens) (UniProt Q96PU8)
T13 sequence: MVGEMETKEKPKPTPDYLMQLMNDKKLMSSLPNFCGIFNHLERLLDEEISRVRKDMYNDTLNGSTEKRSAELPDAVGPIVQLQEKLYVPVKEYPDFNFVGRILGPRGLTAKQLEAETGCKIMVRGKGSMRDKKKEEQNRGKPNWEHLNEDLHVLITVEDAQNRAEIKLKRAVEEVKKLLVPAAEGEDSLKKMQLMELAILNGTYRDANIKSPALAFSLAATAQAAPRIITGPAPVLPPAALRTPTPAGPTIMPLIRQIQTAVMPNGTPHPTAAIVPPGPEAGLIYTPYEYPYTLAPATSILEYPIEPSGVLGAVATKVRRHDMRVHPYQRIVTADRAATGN

[16] = molecular target: T14, SAMD4A (Homo sapiens) (UniProt Q9UPU9)
T14 sequence: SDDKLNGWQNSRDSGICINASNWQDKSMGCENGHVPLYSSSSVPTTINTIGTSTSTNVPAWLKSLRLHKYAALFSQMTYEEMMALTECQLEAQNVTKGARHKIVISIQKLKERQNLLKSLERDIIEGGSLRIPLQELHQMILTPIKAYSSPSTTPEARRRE

[17] = molecular target: T15, RBM41 (Homo sapiens) (UniProt Q96IZ5)
T15 sequence: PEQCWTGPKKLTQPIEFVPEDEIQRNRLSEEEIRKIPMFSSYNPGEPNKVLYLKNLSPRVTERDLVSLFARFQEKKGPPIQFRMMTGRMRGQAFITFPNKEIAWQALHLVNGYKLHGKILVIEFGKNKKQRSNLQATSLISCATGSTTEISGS

[18] = molecular target: T16, SF1 (Drosophila melanogaster) (UniProt A9UNA1)
T16 sequence: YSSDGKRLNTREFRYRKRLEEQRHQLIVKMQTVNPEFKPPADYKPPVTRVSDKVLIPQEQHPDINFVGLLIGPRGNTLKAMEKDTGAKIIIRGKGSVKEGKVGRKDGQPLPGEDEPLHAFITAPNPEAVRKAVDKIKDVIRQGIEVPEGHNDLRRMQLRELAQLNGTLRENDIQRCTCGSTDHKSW

[19] = molecular target: T17, Rbm38 (Mus musculus) (UniProt Q62176)
T17 sequence: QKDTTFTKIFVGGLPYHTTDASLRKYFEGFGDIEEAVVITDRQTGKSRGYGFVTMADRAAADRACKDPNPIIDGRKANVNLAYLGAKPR

[20] = molecular target: SRSF9 (Homo sapiens) (UniProt Q13242)
SRSF9 (Homo sapiens), sequence (Q13242 whole entry): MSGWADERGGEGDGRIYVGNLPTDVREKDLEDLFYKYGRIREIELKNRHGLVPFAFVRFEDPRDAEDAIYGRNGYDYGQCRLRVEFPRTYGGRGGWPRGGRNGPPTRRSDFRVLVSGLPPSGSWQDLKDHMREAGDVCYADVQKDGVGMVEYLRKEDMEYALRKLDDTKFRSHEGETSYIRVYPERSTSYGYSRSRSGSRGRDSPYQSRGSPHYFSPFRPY

[21] = molecular target: T18, Rsf1 (Drosophila melanogaster) (UniProt Q24491)
T18 sequence: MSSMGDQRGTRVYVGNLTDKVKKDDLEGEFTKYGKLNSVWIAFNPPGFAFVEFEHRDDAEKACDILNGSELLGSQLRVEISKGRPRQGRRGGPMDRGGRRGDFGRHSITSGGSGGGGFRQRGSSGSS

[22] = molecular target: Khdrbs1 (Mus musculus) (UniProt Q60749)
Khdrbs1 (Mus musculus), sequence (Q60749 3-443): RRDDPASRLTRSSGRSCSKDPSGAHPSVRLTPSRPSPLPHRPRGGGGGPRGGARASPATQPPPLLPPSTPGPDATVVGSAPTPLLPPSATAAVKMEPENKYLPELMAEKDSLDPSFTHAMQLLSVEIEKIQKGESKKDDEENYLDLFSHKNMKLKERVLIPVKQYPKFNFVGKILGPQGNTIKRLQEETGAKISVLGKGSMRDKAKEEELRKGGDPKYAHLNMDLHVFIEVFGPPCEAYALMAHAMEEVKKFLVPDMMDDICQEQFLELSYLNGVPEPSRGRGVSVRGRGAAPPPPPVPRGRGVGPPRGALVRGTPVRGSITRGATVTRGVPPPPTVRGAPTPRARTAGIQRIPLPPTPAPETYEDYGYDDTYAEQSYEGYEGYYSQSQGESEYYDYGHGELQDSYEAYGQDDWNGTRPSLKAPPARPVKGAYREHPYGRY

UAUAUA [RNAcompete motif RNCMPT00173]
binding signal (z-score (mean of top ten 7-mers)) [1]: 8.57

CGCGCG [RNAcompete motif RNCMPT00113]
binding signal (z-score (mean of top ten 7-mers)) [2]: 17.7

ACAACG [RNAcompete motif RNCMPT00058]
binding signal (z-score (mean of top ten 7-mers)) [3]: 9.03

GAAAAA [RNAcompete motif RNCMPT00064]
binding signal (z-score (mean of top ten 7-mers)) [4]: 11.1

AAUCAA [RNAcompete motif RNCMPT00054]
binding signal (z-score (mean of top ten 7-mers)) [5]: 8.4

GGAGGA [RNAcompete motif RNCMPT00066]
binding signal (z-score (mean of top ten 7-mers)) [6]: 14.1

CCAGAUG [RNAcompete motif RNCMPT00006]
binding signal (z-score (mean of top ten 7-mers)) [7]: 11.9

AAAAAA [RNAcompete motif RNCMPT00043]
binding signal (z-score (mean of top ten 7-mers)) [8]: 12.2

GAGUAG [RNAcompete motif RNCMPT00049]
binding signal (z-score (mean of top ten 7-mers)) [9]: 7.8

UGUACAU [RNAcompete motif RNCMPT00046]
binding signal (z-score (mean of top ten 7-mers)) [10]: 28.5

UUUUUU [RNAcompete motif RNCMPT00005]
binding signal (z-score (mean of top ten 7-mers)) [11]: 11

GAAGGNA [RNAcompete motif RNCMPT00055]
binding signal (z-score (mean of top ten 7-mers)) [12]: 6.04

UAUAUUA [RNAcompete motif RNCMPT00175]
binding signal (z-score (mean of top ten 7-mers)) [13]: 7.37

AGAUAC [RNAcompete motif RNCMPT00050]
binding signal (z-score (mean of top ten 7-mers)) [14]: 7.1

ACUAACC [RNAcompete motif RNCMPT00047]
binding signal (z-score (mean of top ten 7-mers)) [15]: 6.41

GCUGGNC [RNAcompete motif RNCMPT00063]
binding signal (z-score (mean of top ten 7-mers)) [16]: 15.9

AUACAU [RNAcompete motif RNCMPT00053]
binding signal (z-score (mean of top ten 7-mers)) [17]: 10.7

UCUNAU [RNAcompete motif RNCMPT00065]
binding signal (z-score (mean of top ten 7-mers)) [18]: 9.28

UUUNUGU [RNAcompete motif RNCMPT00051]
binding signal (z-score (mean of top ten 7-mers)) [19]: 17

AUGGA [RNAcompete motif RNCMPT00067]
binding signal (z-score (mean of top ten 7-mers)) [20]: 6.71

ACGACGA [RNAcompete motif RNCMPT00061]
binding signal (z-score (mean of top ten 7-mers)) [21]: 10.6

UAAAAG [RNAcompete motif RNCMPT00062]
binding signal (z-score (mean of top ten 7-mers)) [22]: 7.39
